From patent US10398755B2, “Clusterin pharmaceuticals and treatment methods using the same” (UNIVERSITY OF SOUTHERN CALIFORNIA, priority 2009, dated 2019)

Tests used:
[1] = biological target: T1, MMP-2 (Mus musculus, UniProt P33434); assay: MMP inhibition assay (FRET peptide substrate), APMA-activated pro-MMP-2; assay type: biochemical
T1 construct: purchased R&D Systems
Protocol: RFU, relative fluorescence unit, was obtained by considering the read out in PBS as 100%. Each reaction was performed in triplicate. Standard errors were depicted as a bar in each graph. Differences between values of PBS and CLU or SB-3CT reactions were statistically significant by Student t-test: *P=0.0004, **P=0.0001, +P=0.0003, and ++P=0.01. Gelatin zymography was performed with the samples pooled from each reaction set. Pro-MMPs, processed MMPs (MMP-9 or MMP-2), and C-terminal truncated, processed MMP-9 (MMP-9-ΔC) were indicated by arrows. (B) Dose-dependent inhibition of MMP-9 by CLU or SB-3CT was performed in the same condition. MMPs were mixed with CLD in TSCB buffer, 50 mM Tris-HCI, pH, 7.5, 150 mM NaCl, 5 mM CaCl2, 0.002% Brij35 (or otherwise indicated concentration) 30 min prior to substrate addition, and incubated for 3 h at RT in the presence or absence of 0.02 mM p-aminophenylmercuric acetate (APMA). MMP activity was measured using a 5-FAM/QXL520 fluorescence resonance energy transfer (FRET) peptide as a substrate (EXlEm=490 nm/520 nm) (AnaSpec, Fremont, Calif.), according to the manufacturer's protocol. Relative fluorescence unit (RFU) was obtained by subtracting the values of APMA- or enzyme-omitted reactions from those of test samples, and then considering the fluorescence unit of a PBS (vehicle) sample as 100%. Enzyme reactions were performed in black 96-well plate, containing combinations of 10 ng, 5 ng, 5 ng, 10 ng, 2.5 μg, 2.5 μg of MMP-2, MMP-7, catalytic domain of MMP-9, MMP-9, CCLU, and/or BSA, respectively, in 50 μl reaction volume. As MMP substrates (0.4 μM), 520 MMP FRET substrate […] (SEQ ID NO: 9), was used for MMP-2 and MMP-9, and 520 MMP FRET substrate XIV, […] […] Fluorescence was monitored using a Victor^3TM V multilabel counter (PerkinElmer). […] To determine whether MMP-9/CLU interaction affects the cleavage process of the propeptide of MMP-9 and/or interferes with enzymatic activity of the processed active enzyme, we performed an in vitro MMP-9 inhibition assay, by adopting FRET assay using a fluorescence-quenched peptide substrate (FIG. 3A). […] We incubated pro-MMP-9 with PBS, CLU, SB-3CT, or BSA, and a fluorescence peptide substrate in the presence or absence of APMA. […] We monitored the change in fluorescence value during the incubation of the reactions up to 3 h, which reflects the enzymatic activity of APMA-activated MMPs. […] At 3 h post incubation, the activity difference was read and reaction products were resolved by gelatin zymography. […] When the processed enzyme products were resolved on the gel, three bands were detected in the APMA-treated samples, pro-MMP-9, propeptide-cleaved MMP-9 (MMP-9), and MMP-9 with both propeptide and C-terminal region cleaved (MMP-9-ΔC), whereas only pro-MMP-9 was detected in APMA-omitted samples. […]

[2] = system: MMP-9 secreted from HCLE cells; assay: TNF-alpha induction of MMP-9 secretion from stratified HCLE cells (gelatin zymography); assay type: cell-based, human; details: clusterin 50 ug/ml with TNF-alpha 10 ng/ml, 24 hours
Protocol: (§1) HCLE cells were grown to be confluent in KSFM media and then replenished with DMAM/F12 media to stratify cells for 7 days. To these cells in serum-free DMEM/F12 media, clusterin (50 ug/ml), bovine serum albumin (BSA, 50 ug/ml), and TNF-alpha (10 ng/ml), individually or in combination, were treated for 24 hours. The same volume of supernatants of the cell cultures treated were collected to resolve on SDS/PAGE gel containing gelatin in order to perform gelatin zymography to visualize the presence of MMP-9 secreted from the cells.
as §1, with “cells. […] Therefore, Clusterin inhibits the induction of MMP-9 from human corneal limbal epithelial (HCLE) cells. (See FIG. 10)” for “cells.”

T1 sequence (P33434 110-662): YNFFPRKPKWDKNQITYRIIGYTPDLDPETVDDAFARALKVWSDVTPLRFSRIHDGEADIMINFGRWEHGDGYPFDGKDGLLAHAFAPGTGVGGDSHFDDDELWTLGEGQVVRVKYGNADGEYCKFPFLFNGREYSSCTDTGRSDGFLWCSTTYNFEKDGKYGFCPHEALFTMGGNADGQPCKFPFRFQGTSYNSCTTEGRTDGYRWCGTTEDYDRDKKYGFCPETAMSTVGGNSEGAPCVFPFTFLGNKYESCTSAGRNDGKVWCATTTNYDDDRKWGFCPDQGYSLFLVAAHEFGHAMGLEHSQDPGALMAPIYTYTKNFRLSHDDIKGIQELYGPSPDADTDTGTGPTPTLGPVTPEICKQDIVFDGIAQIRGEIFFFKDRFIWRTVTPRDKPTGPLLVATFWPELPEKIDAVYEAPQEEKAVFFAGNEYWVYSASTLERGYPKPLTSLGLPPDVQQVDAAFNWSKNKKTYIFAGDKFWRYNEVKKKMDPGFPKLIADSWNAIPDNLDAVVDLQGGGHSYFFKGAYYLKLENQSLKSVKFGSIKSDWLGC

B1: CLU: secreted disulfide-linked heterodimeric glycoprotein (70-80 KD); assays used recombinant mouse CLU with C-terminal (His)6 (protein, UniProt Q06890 22-448, looked up)
Clusterin: EQEVSDNELQELSTQGSRYINKEIQNAVQGVKHIKTLIEKTNAERKSLLNSLEEAKKKKEDALEDTRDSEMKLKAFPEVCNETMMALWEECKPCLKHTCMKFYARVCRSGSGLVGQQLEEFLNQSSPFYFWMNGDRIDSLLESDRQQSQVLDAMQDSFARASGIIDTLFQDRFFARELHDPHYFSPIGFPHKRPHFLYPKSRLVRSLMSPSHYGPPSFHNMFQPFFEMIHQAQQAMDVQLHSPAFQFPDVDFLREGEDDRTVCKEIRRNSTGCLKMKGQCEKCQEILSVDCSTNNPAQANLRQELNDSLQVAERLTEQYKELLQSFQSKMLNTSSLLEQLNDQFNWVSQLANLTQGEDKYYLRVSTVTTHSSDSEVPSRVTEVVVKLFDSDPITVVLPEEVSKDNPKFMDTVAEKALQEYRRKSRAE
modifications: C-terminal His6 tag
- effect on APMA-induced processing of MMP-2 (gel analysis) ([1]; APMA-treated reactions): processing of MMP-2 was not altered
- inhibition of MMP-2 activity ([1]; CLU 50 μg/ml (0.63 μM), APMA, RT 3 h): 72%
- potency on MMP-2 compared with SB-3CT ([1]; CLU 50 μg/ml or 0.63 μM versus SB-3CT 1 μM): more potent inhibitor of both MMP-9 and MMP-2 than SB-3CT
- MMP-2 inhibition at high detergent concentration ([1]; buffer with 0.04% Brij 35 or NP-40): inhibited by CLU in both buffers to the extent similar to that in the lower detergent concentration
- TNF-induced MMP-9 secretion [2]: inhibited TNF-induced MMP-9 secretion
